{
  "source": "the nanobody polyreactivity screen of Harvey et al. (2022)",
  "data": [
    {"assay": "yeast display, Sf9 membrane polyspecificity reagent, FACS + sequencing; frameworks hold sequencing errors", "summary_of_the_method": "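Synthetic nanobody libraries on Saccharomyces cerevisiae BJ5465 were galactose-induced for 36–48 hours, stained 1 hour at 4 °C with 10% biotinylated, detergent-solubilized Sf9 membrane reagent and enriched on streptavidin microbeads. FACS then separated cells into low and high (top ~1%) gates by anti-HA (expression) and streptavidin (reagent binding) fluorescence. Genes were colony-PCR amplified, MiSeq 2 × 250 sequenced and CDR-length filtered. A clone's polyreactivity label is that of its gate of origin.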", "values": [
      {"sequence": "QVQLVESGGGLVQAGGSLRLSCDASGNTFRGYAMGWYRQAPGKERELVAAITSGGRTYYADSVKGRFTISRDNAKNTVYLQMNSLKPEDTAVYYCNAVLGRYVTYNYWGQGTQVTVSS", "polyreactivity (PSR sort gate)": "high polyreactivity"},
      {"sequence": "QVQLVESGGGLVQAGGSLRLSCAASGFTFVDYAMGWYRQAPGKERELVAAITVSGDSTYYADSVKGRFTISRDNAKNTVYLQMNSLKPEDTAVYYCAADPGYYDGGYWGQGTQVTVSS", "polyreactivity (PSR sort gate)": "low polyreactivity"},
      {"sequence": "QVQLVESGGGLVQAGGSLRLSCAASGITFVRNTMGWYRQAPGKERELVAAIDSGGNTNADSVKGRFTISRDNAKNTVYLQMNSLTPEDTAVYYCAVDGGEFSSYGYWGQGTQVTVSW", "polyreactivity (PSR sort gate)": "low polyreactivity"},
      {"sequence": "QVQLVESGGGLVQAGGSLRLSCAASGSIFLPYAMGWSRQAPGTEREFVAAIRWSTGRTFYADSVKGRFTISRDNAKNTVYLQMNSLKPEDTAVYYCAAKYYDSWYTYRYDYWGQGTQVTVSS", "polyreactivity (PSR sort gate)": "high polyreactivity"},
      {"sequence": "QVQLVESWGGLFQAGGSLRLRCAASGRKFYYYAMVFYIQAPGKERELVAAITGRGGRTYYADSVKGRFTISRDNAKNTVYLQINSLKPDDTAVYYCAVRAGSAGYPKYDYWGQGTQVTLSS", "polyreactivity (PSR sort gate)": "high polyreactivity"},
      {"sequence": "QVQLVESGGGLVQAGGSLRLSCAASGSIFYYYAMGWYRQAPGKERELVAAITYRGTRTYYADSVKGRFTISRDNAKNTVYLLMNSLKPEDTAVYYCAAERRIYSSDSWGQGTQVTVSS", "polyreactivity (PSR sort gate)": "high polyreactivity"},
      {"sequence": "QVQLVESGGGLVQAGGSLRLSCAASGLSFSVYAMGWSRQAPGTERELVASIDLSGGNTYYADSVKGRFTISRDNAKNTVYLQMNSLKPEDTAVYYCAKYNPYYYSFSVWDGGDYWGQGTQVTVSS", "polyreactivity (PSR sort gate)": "low polyreactivity"},
      {"sequence": "QVQLVESGGGLVQAGGSLRLSCAASGRIFRGYAMGWYRQAPGKERELVAAISGSGGSTYYADSVKGRFTISRDNAKNTVYLQMMSLKPEDTAVYYCAADQQSTGDWAGDYWGQGTQVTVSS", "polyreactivity (PSR sort gate)": "low polyreactivity"},
      {"sequence": "QAQLKDSCGGLVQAGGSLRLSCPASGNNTSEYYMGCCRQAPGKGREFVDAIDYGGTTNYADNVKGRFTISRDNAKNTVYLQMNSLRPEDTALYYCAASWDTIGLFAYWGQGSQVTVSS", "polyreactivity (PSR sort gate)": "high polyreactivity"},
      {"sequence": "QVQLVESGGGLVQAGGSLRLSCAASGFTFSFYAMGWYRQAPGKERELVAAITWSGGNTYYADSVKGRFTISRDNAKNTVDLQMNSLKPEDTAVYYCAARGPASVRYYYWGQGTQVTVSS", "polyreactivity (PSR sort gate)": "high polyreactivity"},
      {"sequence": "QVQLVESGGGLVQAGGSLRLSCAASGSIFGWYAMGWYRQAPGKERELVAAISSSDGSTYYADSVKGRFTISRDNANNTVYFPMNSLKPEDTEVYYCATDYAFTYAQYDYWGQGTQVTVSS", "polyreactivity (PSR sort gate)": "low polyreactivity"},
      {"sequence": "QVQLVESGGGLVQAGGSLRLSCAASGSKFWGYAMGWYRKAAGKERELVAAITDSGGRTYYADSVKGRFTISRDNEKNTVYLQMNSLKPEDTAVYYCAADYYSQYYYYAVPDRDYWGQGTQVTVSS", "polyreactivity (PSR sort gate)": "low polyreactivity"},
      {"sequence": "QVQLVESGGGLVQAGGSLRLSCAASGLTFHRYAMGWYRPAPGKERELVAAINYSGGRTYYADSVKGRFTISRDNAKYTVYLQMNSLKPEDTAVYYCAARFSRVYPRYDYWGQGTQVTVSS", "polyreactivity (PSR sort gate)": "high polyreactivity"},
      {"sequence": "QVQLVESGGGLVQAGGSLRLSCAASGRTFYRNAMGWYRQAPGKERELVAAISQRGGRTYYADSVKGRFTISRDNAKNSVYLQMNSLKPEDTAVYYCAASPIYPVYRRHGYWGQGTQVTVSS", "polyreactivity (PSR sort gate)": "high polyreactivity"},
      {"sequence": "QVQHVESGGGLVQAGGSLRLSCAASGTTFVLYAMGWYIQAPGKERELVAAITWSGGITYYADSVKGRFTISRDNAKNTVYLQMNSLKPEDTAVYYCNAEQKQYEKSYDYWGQGSQVTVSS", "polyreactivity (PSR sort gate)": "low polyreactivity"},
      {"sequence": "QVPLVESGGGLVQAGRSLRLSCAASGITFRHNTMGWYRQAPGKERELVSTNYADSVKGRFTFSRDNAKNTVYLQMNSLKPEDTAVYYCNADGTFESDYWGQGTQVTVSS", "polyreactivity (PSR sort gate)": "low polyreactivity"},
      {"sequence": "QVQLVESGGGLVQAGGSLRLSCAASGSTFYRNAMGWYRQAPGKEREFVADITLGGGSTYYADSVKGRFTISRDNAKNTVYLQMNSLTPEDTAVYYCAVVYWQLNYDYWGQGTQVTVSS", "polyreactivity (PSR sort gate)": "low polyreactivity"},
      {"sequence": "QVQLVESGGGLVQARGSLRLSCAASGITFGRNTMGWYRQAPGKERELVAAIDSGGNTYADSVKGRFTISRDNAKNTVYLQMNSLKPDDTAVYYCAVDGGEFSSYGYWGQGTQVTVSS", "polyreactivity (PSR sort gate)": "low polyreactivity"},
      {"sequence": "QVQLVDSGGGLVQAGGSLRITCAASGFTFTRYALGGYRQAPGKERELVAVITSTAGSTYYADSVKGRFTISRDNAKNSVYLQMNSLKAEVTAVYFCAAESLVHGDVTLEEVVAQSYDYWGQGSQVTVSS", "polyreactivity (PSR sort gate)": "low polyreactivity"},
      {"sequence": "QVQLVESGGGLVQAGGSLRLSCADSGLILYTYAMGWYRQAPGKERELVAAIDWGDGDTYYADSVKGRFTISRDNAKNTVYLQMNSLKPEDTAVYYCAADLVGYSGYYFDEEYYWGQGTQVTVSS", "polyreactivity (PSR sort gate)": "high polyreactivity"},
      {"sequence": "QVQLVESGGGLVQAGGSLRLSCAASGSTFRWNAMGWYRQAPGKETELVAAITRSVGSTYYADSVKGRFTISRDNAKNTVYLQMNSLKPEDTAVYYCAADFYYYGFDYWGQGTQVTVSS", "polyreactivity (PSR sort gate)": "low polyreactivity"},
      {"sequence": "QVQLVESGGGLVQAGGSLRLSCAASGRTFTYYAMGWYRPAPGKERELVARITTDGSSTYYADSVKGRFTISRDNAKNTVYLQMNSLKPEDTAVYYCAADFQYAIHTDMDYWGQGTQVTVSS", "polyreactivity (PSR sort gate)": "high polyreactivity"},
      {"sequence": "QVQLVESGGGLVQAGGSLRLSCAASGRILGSYAMGWYRQAPGKERELVAGISWRGGRTYYADSVKGRFTISRDNAKNTVYLQMNSLKPEDTAVYYCATRSSSRKYGYWGQGTQVTVSS", "polyreactivity (PSR sort gate)": "high polyreactivity"},
      {"sequence": "QVQLQESGGGLVQAGGSLRVSCAASGYISSWYPRGWYRQAPGKEREFVATISPGATTYYADSVKGRFTISRDYAKNTVYLQMNSLKPEDTAVYYCSAGQENNDFYSYWGQGTQVTVSS", "polyreactivity (PSR sort gate)": "low polyreactivity"},
      {"sequence": "QVQLVESWGGLVQAGGSLRLSCAASGFTFTSYAMGCYRQAPGKEREFVAGITKGGGNTYYSDSVKGRFTISRDNAKNTVYLHMNSLKPEDTEVYYCAADRSSFYLSHGTVDCYDYWGQATQVTVSS", "polyreactivity (PSR sort gate)": "low polyreactivity"},
      {"sequence": "QVQLVESGGGLVQAGGSLRLSCAASGSTFVRYAMGGYRQAPGKERELVAAISWSGASTYYADSVKGRFTISRDNAKNTVYLQMNSLKPEDTAVYYCAARSRWYDAAGYPKYYYWGQGTQVTVSS", "polyreactivity (PSR sort gate)": "high polyreactivity"},
      {"sequence": "QVQLVESGGGLVQAGGSLRLSCAASGFICTGYTMGWYRQAPGKERELVARISSGDSTKYADSVKGRFTISRDNAKNTVYLQMNSLKPEDTAVYYCNVRDRRSIRSRSDYWGQGTQVTVSS", "polyreactivity (PSR sort gate)": "high polyreactivity"},
      {"sequence": "QVQLVESGGGLVQAGGSLRLSCAASGFTFLKNAMVWYRQAPGKERELVAAITGSGGSTYYADSVKGRFTISRDNAKNTVYLQMNSLKPEDTAVYYCNVRRGLRAYEYWGQGTQVTVSS", "polyreactivity (PSR sort gate)": "high polyreactivity"},
      {"sequence": "QVQLVESGGGLVQAGGILRLSCAASGSTFVPNTMAWYRQAPGKERELVAAITYSGGSTYYADSVKGRFTISRDNAKNTVYLQMNSLKPEDTAVYYCAAEGTTWYYDMDYWGQGTQVTVSS", "polyreactivity (PSR sort gate)": "low polyreactivity"},
      {"sequence": "QVQLVESGGGLVQAGGSLRLSCAASGGIFSSYAMGWYRQAPGKERELVATITSRGGSTYYADSVKGRFTISRDNAKNTVYLQMNSLKPEDTAVYYCAKEYRYYRRRYDYWGQGTQVTVSS", "polyreactivity (PSR sort gate)": "high polyreactivity"},
      {"sequence": "QVQLVESGGGLVQAGGSLRLSCAASGSIFYNTMGWYRQAPGKERELVAAITSGGSTYYADSVKGRFTISRDNAKNTVYLQMNSLKPEDTAVYYCAAESYYCGYQWLYFEYGYWGQGTQVTVSS", "polyreactivity (PSR sort gate)": "low polyreactivity"},
      {"sequence": "QFHLVESGGGLVQAGGSLRLSCAASGSTFWFNVMGWYRQAPGKEREFVAAISSIGGSTYYADSVKGRFTISRDNAKNTVYLQMNSMKPEDTAVYYCAVEVVRVYRYDYWGQGTQVTVTS", "polyreactivity (PSR sort gate)": "low polyreactivity"},
      {"sequence": "QVQLVESGGGLVQAGGSLRLSSAASGSIFGYNPMGWYRPAPGKERELVAAIRISTDNTYYADSVKGRFTISRDNAKNTVYLQMNSLKPEDTAVDYCAADEYWWGYYYWGQGTQVTVSS", "polyreactivity (PSR sort gate)": "high polyreactivity"},
      {"sequence": "QVQLVESGGGLVQAGGSLRLSCAASGSTFLGNDMGWYRQEPGKERELVASINSATSTTYADSVKGRFTISRDNAKNTVYLQMNSLKPEDTAVYYCAARYYRPLDYWGQGTQVTVSS", "polyreactivity (PSR sort gate)": "low polyreactivity"},
      {"sequence": "QVQLVESGGGLVQAGGSLRLSCAASGSTLRGNAMGWYRQAPGKERELVAAISWSGGSTYYADSVKGRFTISRDNAKNTVYLQMNSLKPEDTAVYYRATASPSTRYGRLGDYWGQGTQVTVSS", "polyreactivity (PSR sort gate)": "low polyreactivity"},
      {"sequence": "QVQLVESGGGLVQAGGSLRLSCAASGLTFPRYTMGWYRQPPGKERELVAAISSSTGTTNYADSVKGRFTISRDNAKNTVYLQMNSLKPEDTAVYYCAKRVSSWLGFHLDYWGQGTQVTVSS", "polyreactivity (PSR sort gate)": "low polyreactivity"},
      {"sequence": "QVQLVESGGALVQAGGSLRLSCAASGSIFFENAMGWYRPAPGKERELVAAIRSGVDTYYADSVKGRFTLSRDNAKNTVYLQMNSLKPQDTAVYNCNADAYYYYAIWWSEVDYWGQGTQVTVSS", "polyreactivity (PSR sort gate)": "low polyreactivity"},
      {"sequence": "QDQLVESGGGLVQAGGSLRLSCAASGRIFYTNGMGWYRQAPGKERELVAAITYSGGNTFYADSVKGRFTISRDNAKNTVYLQMNSLKPEDTAVYYCAATFTYLGYWYDYWGQGTQVTVSS", "polyreactivity (PSR sort gate)": "low polyreactivity"},
      {"sequence": "QVQLVESGGGLVQAGGSLRLSCASSGSIFWQNTMGWYRQAPGKERELVATITSAGSTYYADSVKGRFTISRDNAKNTVYLQMNSLKPEDTAVYYCAKGHQPGHVFHPEYGYDYWGQGTQVTVSS", "polyreactivity (PSR sort gate)": "low polyreactivity"},
      {"sequence": "QVQLVESGGGLVQAGGSLRLSCAASGFTFRRYAMGGYRQAPGKERELVAAISANGGSTYYADSVKGRFTISRDNAKNTVYLQMNSLKPEDTAVYYCNARKYTQSIHYDYWGQGTQVTVSS", "polyreactivity (PSR sort gate)": "high polyreactivity"},
      {"sequence": "QVQLVESGGGLVQAGGSLRLSCAASGRIFSVYAMGWYRQAPGKERELVASIRSRGSSTYYADSVKGRFTISRDNAKNTVYLQMNSLKPEDTAVYYCAVDVLTVGQSYDHWGQGTQVTVSS", "polyreactivity (PSR sort gate)": "high polyreactivity"}
    ]}
  ]
}
